Key:
Type in all cases: cell-based, Homo sapiens
[1] = system: caspase 8 in HCT116 lysates; assay: Caspase 8 activity (caspase glo 8) of cell lysates / IP inputs; details: for average fold change rel to empty: mean of 4 dilutions
Description: Cells harvested from a 6-well plate were resuspended in 100 μl of lysis buffer (30 mM HEPES pH 7.2, 150 mM NaCl, 1% Triton X-100) and lysed via needle shearing (25G, 10 passes) followed by a 30 min incubation on ice. Supernatant was collected after centrifuging at 1000xg for 5 min. For the caspase activity assay, 10 μl of supernatant diluted with lysis buffer (1:25, 1:50, 1:100 to stay within linear range of luminescence measurements) was incubated with 10 μl of the luminogenic caspase glo 8 substrate (Promega #PRG8200) in a 384-white walled plate (Corning 3574) for 45 min at RT before measuring luminescence on a Spectramax-M5 plate reader.

[2] = system: DR5; assay: GFP immunoprecipitation: DR5 (FADD, caspase 8) recovered with GFP-tagged protein, Western blot; details: for fraction of DR5 IP'ed: GFP IP
Description: 15 cm dishes were seeded with 4 million HCT116 cells and allowed to recover for 18 hr prior to transfection. Samples were then transfected for 24 hr with the GFP-tagged ER trafficked protein, cytosolic GFP, or empty vector. To harvest apoptotic and living cells for each sample, all media and washes were collected. Cells were scraped in 2 ml of cold PBS and combined with the media and washes. Samples were centrifuged to pellet cells, washed with 1 ml cold PBS, and flash frozen in liquid N2 prior to lysis.
The cell pellets were resuspended in 750 μl of 30 mM HEPES pH 7.2, 150 mM NaCl, 1% Triton X-100 with 1x Roche protease inhibitor cocktail (if used subsequently for caspase glo 8 assay) or with 5x Roche protease inhibitor cocktail (if used for immunoblotting). The cells were lysed by mechanical shearing through a 25G needle for 13–15 plunges followed by incubation on ice for 30 min. The lysate was centrifuged at 2000xg for 5 min to remove debris and then incubated with 30 μl of GFP-Trap magnetic agarose beads (Chromotek gtma-20) for 4 hr at 4°C. The beads were then washed with 750 μl of lysis buffer for 10 min at 4°C for three rounds.
For Western blots, samples were eluted by adding 35 μl of non-reducing SDS gel loading buffer (50 mM Tris-HCl (pH 6.8), 2% SDS, 0.1% bromophenol blue, 10% glycerol) and incubated for 10 min at 70°C. The beads were then magnetically removed from the eluted sample before adding DTT to a final concentration of 25 mM. The entire sample was loaded onto the gel and immunoblotted for DR5, caspase 8, and GFP, in that order.

[3] = system: HCT116 cells; assay: Trypan blue staining, automated cell counting; set-up: key to Trypan blue- / Trypan blue+ / avg Trypan blue- / avg Trypan blue+: % of cells (Trypan blue positive or negative); details: for Dead concentration / Live concentration / Total Concentration / Viability (%): hct mpz, BF
Description: Cells seeded in a 6-well plate were transfected with the specified plasmid for 24 hr and harvested via trypsinization in complete media and ultimately resuspended in 400 μl of media to obtain a concentration of 1.0–3.0 × 10^6 cells/ml. The cell suspension was then mixed 1:1 with 0.4% Trypan blue (Sigma-Aldrich) and incubated at 37°C for 30 min. The percentage of cells staining positive for was then quantified using the Countess II FL Automated Cell Counter (ThermoFisher, catalog # AMQAF1000) default brightfield settings with disposable slides.

[4] = system: PARP / caspase 8 / caspase 3 in HCT116 cells; assay: Western blot of HCT116 lysates (PARP, caspase 8 and caspase 3 cleavage, DR5 level)
Description: Media and cells for each sample were collected by cell scraping into cold PBS followed by a subsequent wash with 1 ml of cold PBS. The cell pellet was then resuspended in cold lysis buffer (30 mM HEPES pH 7.2, 150 mM NaCl, 1% Triton X100, 1x Roche protease inhibitor) and lysed via needle shearing on ice. Samples were centrifuged at 1000xg for 5 min, and the supernatants were mixed with sample buffer to a final concentration of 1% SDS, 62.5 mM Tris-HCl pH 6.8, 10% glycerol, 0.1% bromophenol blue, 50 mM DTT. Samples were boiled at 95°C and loaded on SDS-PAGE gels (GenScript). Samples were subsequently transferred onto nitrocellulose membranes, blocked with Odyssey buffer (Licor) for 1 hr at RT, and probed with primary antibodies diluted 1:1000 (unless otherwise specified) in Licor Odyssey buffer supplemented with 0.1% Tween 20% at 4°C overnight.
Bound primary antibodies were probed by HRP-conjugated secondary antibodies (Amersham, Piscataway, NJ, 1:10000) using enhanced chemiluminescence (SuperSignal; Thermo Scientific, Waltham, MA) detected by standard film or through the ChemiDoc XRS+ Imaging System (Bio-Rad).

[5] = biological replicate 1 (05.22.2019)
[6] = biological replicate 2 (05.24.2019)
[7] = biological replicate 3 (05.24.2019)

B1: MPZ-GFP: myelin protein zero with a C-terminal monomeric EGFP, expressed from plasmid (protein)
chain: IVVYTDREVHGAVGSRVTLHCSFWSSEWVSDDISFTWRYQPEGGRDAISIFHYAKGQPYIDEVGTFKERIQWVGDPRWKDGSIVIHNLDYSDNGTFTCDVKNPPDIVGKTSQVTLYVFEKVPTRYGVVLGAVIGGVLGVVLLLLLLFYVVRYCWLRRQAALQRRLSAMEKGKLHKPGKDASKRGRQTPVLYAMLDHSRSTKAVSEKKAKGLGESRKDKK
modifications: left off: monomeric EGFP, C-terminal, kept
notes: myelin protein zero with a C-terminal monomeric EGFP, expressed from plasmid
average fold change rel to empty ([1]; 3 hr): 0.9963 fold | average fold change rel to empty ([1]; 7 hr): 0.909 fold | average fold change rel to empty ([1]; 10 hr): 1.233 fold | average fold change rel to empty ([1]; 20 hr): 1.145 fold | average fold change rel to empty ([1]; 24 hr): 2.224 fold | average fold change ([1]; Rep 1, HCT116 lysate, amount not given, normalized RLUs relative to empty (GFP), average over four lysate dilutions): 2.827 fold | fold change relative to empty ([1]; input, dilution 0.01, rep1): 2.2 | fold change relative to empty ([1]; input, dilution 0.01, rep2): 1.925 | fold change relative to empty ([1]; input, dilution 0.01, rep3): 0.9528 | fold change relative to empty ([1]; input, dilution 0.02, rep1): 2.798 | fold change relative to empty ([1]; input, dilution 0.02, rep2): 1.811 | fold change relative to empty ([1]; input, dilution 0.02, rep3): 1.706 | avg fold change ([1]; input, dilution 0.02, second listing, relative to avg. empty, average of rep1-rep3): 1.9619 | fold change relative to empty ([1]; input, dilution 0.02, second listing, rep2): 1.832 | fold change relative to empty ([1]; input, dilution 0.02, second listing, rep3): 1.342 | fold change in caspase 8 activity relative to empty, Mean ± SEM ([1]; inputs of GFP pulldown, n=6): 1.899 ± 0.2476, n=6 fold | fraction of DR5 IP'ed ([2]; run 2018-02-27): 0.1051 | fraction of DR5 IP'ed ([2]; sheet 2019-12-12, replicate 2): 0.0582 | fraction of DR5 IP'ed ([2]; sheet 2019-12-12, replicate 3): 0.1364 | DR5 complex proteins in GFP immunoprecipitates ([2]; HCT116, 24 hr post-transfection): detected DR5, FADD, and caspase 8 | fraction IP'ed ([2]; Rep 1 (first series)): 0.1051 | fraction IP'ed ([2]; Rep 2 (first series)): 0.0582 | fraction IP'ed ([2]; Rep 3 (first series)): 0.1364 | % IP'ed ([2]; average of all replicates): 9.991% | fraction IP'ed, average ([2]; average of all replicates): 0.09991 | beads (*diluton factor) ([2]; Rep 1 (first series)): 1453332 | beads (*diluton factor) ([2]; Rep 2 (first series)): 11158310 | beads (*diluton factor) ([2]; Rep 3 (first series)): 12501020 | input (*dilution factor) ([2]; Rep 1 (first series)): 13824070 | input (*dilution factor) ([2]; Rep 2 (first series)): 191711370 | input (*dilution factor) ([2]; Rep 3 (first series)): 91647520 | Mean ± SEM (fraction IP'ed) ([2]; unpaired t test sheet, GFP n=5, MPZ n=3, INS n=2, RHO n=2): 0.09991 ± 0.02272, n=3 | 95% confidence interval (difference between means) ([2]; vs. GFP, fraction IP'ed): 0.04255 to 0.1369 | Difference between means ([2]; vs. GFP, fraction IP'ed, ± SEM): 0.0897 ± 0.01927 | Trypan blue+ ([3]; MPZ-GFP, Rep 1): 47.8261 | Trypan blue- ([3]; MPZ-GFP, Rep 1): 52.1739 | Trypan blue+ ([3]; MPZ-GFP, Rep 2): 36.3817 | Trypan blue- ([3]; MPZ-GFP, Rep 2): 63.6183 | Trypan blue+ ([3]; MPZ-GFP, Rep 3): 29.5129 | Trypan blue- ([3]; MPZ-GFP, Rep 3): 70.4871 | avg Trypan blue+ ([3]; MPZ-GFP, avg of Rep 1-3): 37.9069 | avg Trypan blue- ([3]; MPZ-GFP, avg of Rep 1-3): 62.0931 | Dead concentration [3, 5]: 3.87E+05 | Live concentration [3, 5]: 4.22E+05 | Total Concentration [3, 5]: 8.09E+05 | Viability (%) [3, 5]: 52.1739% | Dead concentration [3, 6]: 1.07E+06 | Live concentration [3, 6]: 1.88E+06 | Total Concentration [3, 6]: 2.95E+06 | Viability (%) [3, 6]: 63.6183% | Dead concentration [3, 7]: 1.21E+06 | Live concentration [3, 7]: 2.89E+06 | Total Concentration [3, 7]: 4.09E+06 | Viability (%) [3, 7]: 70.4871% | DR5 int (bg subtracted) ([4]; DR5 input levels, Rep 2): 739.08 | normalized DR5 to GAPDH ([4]; DR5 input levels, Rep 2): 0.2156 | DR5 int (bg subtracted) ([4]; DR5 input levels, Rep 3): 357.944 | normalized DR5 to GAPDH ([4]; DR5 input levels, Rep 3): 0.2423 | DR5 levels normalized to GAPDH, average ([4]; DR5 input levels, average of rep 2 and rep 3, Stdev in row below): 0.229 | caspase 8 and caspase 3 cleavage, high expression ([4]; HCT116, 24 hr): cleavage of caspase 8and its downstream target caspase 3 | caspase 8 and 3 cleavage/activity, low expression level ([4]; low levels of MPZ-GFP expression, proper plasma membrane localization): did not induce caspase 8 or 3 activity

Reference: paper PMC7041945, “Misfolded proteins bind and activate death receptor 5 to trigger apoptosis during unresolved endoplasmic reticulum stress” (eLife, 2020)
